{
  "source": "patent EP2411513B1",
  "target": "CD11b/CD18 receptor on J774A.1 murine monocytes/macrophages (murine) (UniProt P05555)",
  "experiment": "cell-based or functional assay",
  "data": [
    {"substance": "CyaA/233OVA/K860R/AC- (from UniProt J7QLC0 1-1706)", "values": [
      {"measurement": "Lysis of J774A.1 cells (% of AC-)", "value": "72 % of AC-"}
    ]}
  ]
}
